Earlier results, collected in PMC6983177.

How the values were obtained:
pCDC25c (Homo sapiens) = pCDC25c (Homo sapiens) (UniProt P30307)
[1] = target: RNA polymerase II CTD phosphopeptide (Homo sapiens) (UniProt P24928); test: isothermal titration calorimetry

UniProt P30307, sequence (P30307 2-473): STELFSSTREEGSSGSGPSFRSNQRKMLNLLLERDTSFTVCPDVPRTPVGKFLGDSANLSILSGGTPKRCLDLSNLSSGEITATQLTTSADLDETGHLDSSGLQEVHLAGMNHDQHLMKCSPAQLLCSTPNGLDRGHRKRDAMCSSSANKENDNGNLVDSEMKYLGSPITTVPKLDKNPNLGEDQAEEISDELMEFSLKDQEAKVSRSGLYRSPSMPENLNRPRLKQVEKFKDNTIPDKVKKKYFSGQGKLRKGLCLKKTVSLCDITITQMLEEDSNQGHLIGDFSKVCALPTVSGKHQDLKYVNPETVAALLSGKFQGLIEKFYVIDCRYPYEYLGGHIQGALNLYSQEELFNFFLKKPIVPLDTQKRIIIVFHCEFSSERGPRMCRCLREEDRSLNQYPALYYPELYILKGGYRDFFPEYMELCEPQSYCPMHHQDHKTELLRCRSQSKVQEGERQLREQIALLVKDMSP

- Kd (pCDC25c (Homo sapiens)): 8 µM
- Kd [1]: 35 µM
Substance: Pin1 WW (from UniProt Q13526)
